assay: soluble on expression in E. coli; label from the status in PepcDB or PDB records

Q: With “MKVDGKHTRTIWLEADGWTVGTIDQRRLPHDYVVVKLTSSDDAADAIRTMLVRGAPLIGATAAYGMALAMREDASDAGLDAAYAKLVATRPTAINLKWALDEMRRALAPVQPADRVAAAYRRAGEIADEDVAINQAIGASGLKLIEAIAATKKPGERVNVLTHCNAGWLATVDWGTATAPIYQAFDAGIPIHVYADETRPRNQGASLTAWELGHHGVDHTVIPDNTGGHLMQHGLVDIVIVGTDRVTADGDVCNKIGTYLKALAAADNKVPFYVALPSPTIDFTIHDGVREIPIEQREAAEVTDMTGRTNDGRIETVRIVPQGSKVANYGFDVTPARLVTGLITERGVLKADRAALAAAFPERVAQAKELLRASAAALEHHHHHH” as the sequence, how does the “soluble on expression in E. coli” value read?
A: soluble

Q: Which “soluble on expression in E. coli” value does the source give for “MKVDKRIEAVTKFLESLGTVEDYTEDVAVKYRNLILKSYELYENKYNDTVDDSLCIEVWSNGTYVVTNEDLSFDCESEEDLQKLKELFVNTSFYITINELNKVGHKATLSVKAKAKNLRKLGQLIKEYRSCNCKYLKDKVTEIIGDDGRVYLDRISERMD” here?
A: not soluble

Q: For “MKVEILPFGNMDQWVTREIKESGIIGGNTKKVYAIGPTETIVGAKPYANKGGSPWGTSNVMARVSGITKTNTSVFPETRGDGFCARLDTRMESVKVLGIVDITVLAAGSMFLGTVHEPIKSTKNPNKMLQMGIPFTDRPSAIQFDYKVKMSDRENRIRATGFSKITDVPGKDFPAVILLLQKRWEDAKGNVYAKRIGTMVNYYYHSTDWKNGSKYDIMYGDITKDPAYKAHMMRLQASEYFTVNSKGESVPIHEVAWGEADDVPTHMILQFTSSHGGAYIGSPGNSLYIDNVKLIYLEHHHHHH”, which “soluble on expression in E. coli” value is on record?
A: soluble

Q: Which “soluble on expression in E. coli” value does the source give for “MKVGIDAGGTLIKIVQEQDNQRTFKTELTKNIDQVVEWLNQQQIEKLCLTGGNAGVIAENINIPAQIFVEFDAASQGLGILLKEQGHDLADYIFANVGTGTSLHYFDGQSQRRVGGIGTGGGMIQGLGYLLSQITDYKQLTDMAQHGDRNTIDLKVRHIYKDTEPPIPGDLTAANFGHVLHHLDADFTPSNKLAAVIGVVGEVVTTMAITVAREFKTENIVYIGSSFHNNALLRKVVEDYTVLRGCKPYYVENGAFSGAIGALYLEKLEHHHHHH” here?
A: soluble

Q: Which “soluble on expression in E. coli” value does the source give for “MKVGINGFGRIGRQVFRILHSRGVEVALINDLTDNKTLAHLLKYDSIYHRFPGEVAYDDQYLYVDGKAIRATAVKDPKEIPWAEAGVGVVIESTGVFTDADKAKAHLEGGAKKVIITAPAKGEDITIVMGVNHEAYDPSRHHIISNASCTTNSLAPVMKVLEEAFGVEKALMTTVHSYTNDQRLLDLPHKDLRRARAAAINIIPTTTGAAKATALVLPSLKGRFDGMALRVPTATGSISDITALLKREVTAEEVNAALKAAAEGPLKGILAYTEDEIVLQDIVMDPHSSIVDAKLTKALGNMVKVFAWYDNEWGYANRVADLVELVLRKGV” here?
A: soluble

Q: With “MKVIKGLTAGLIFLFLCACGGQQIKDPLNYEVEPFTFQNQDGKNVSLESLKGEVWLADFIFTNCETICPPMTAHMTDLQKKLKAGNIDVRIISFSVDPENDKPKQLKKFAANYPLSFDNWDFLTGYSQSEIEEFALKSFKAIVKKPEGEDQVIHQSSFYLVGPDGKVLKDYNGVENTPYDDIISDVKSASTLK” as the sequence, how does the “soluble on expression in E. coli” value read?
A: soluble

Q: Which “soluble on expression in E. coli” value does the source give for “MKVLPMLLALAVPGLCWAEDPQTFEGAGVVFEVQVEKNLVDIDHRLYRLPNSTVRNGMPSLFQVKPGSVVSYSGTVSQPWSTITDIYIHKQMSEQELAEMIEKEQPRQDGEEQPR” here?
A: not soluble

Q: With “MKVPEAAISRLITYLRILEELEAQGVHRTSSEQLGELAQVTAFQVRKDLSYFGSYGTRGVGYTVPVLKRELRHILGLNRKWGLCIVGMGRLGSALADYPGFGESFELRGFFDVDPEKVGRPVRGGVIEHVDLLPQRVPGRIEIALLTVPREAAQKAADLLVAAGIKGILNFAPVVLEVPKEVAVENVDFLAGLTRLSFAILNPKWREEMMG” as the sequence, how does the “soluble on expression in E. coli” value read?
A: soluble

Q: For “MKVVVIDAGHGAKDSGAVGISRKNYEKTFNLAMALKVESILKQNPKLEVVLTRSDDTFLELKQRVKVAENLKANVFVSIHANSSGSSASNGTETYYQRSASKAFANVMHKYFAPATGLTDRGIRYGNFHVIRETTMPAVLLEVGYLSNAKEEATLFDEDFQNRVAQGIADGITEYLDVK”, which “soluble on expression in E. coli” value is on record?
A: soluble

Q: For “MKVYIVEHAIGSFAYDEQGKLIDFVLSSKDLGKVVDSLLDNEKGIPLPTTIELIQKIKPEEVVVENEAEIPNLQQLGVKASYEIHNLGSKIFRESLPKIAIETKFASSENDLYSFLYEVSFEYTRRKLRTAASKRDLLAIQAIRAIDDIDKTINLFSERLREWYSIHFPELNKLVEDHELYASIVSKFGHRDEITNTGLDEIGVNKDLSTKILDASKKSIGADITDVDIRSIKMLSDTILELFRIRSELTDYVESVMKEVAPNVTALVGPTLGARLLSLAGSLEDLAKMPASTIQVLGAEKALFRALRKGGKPPKHGVIFQYPAIHTSPRWQRGKIARALAAKLAIAARIDAFSGRFIGDKLNEELKKRIEEIKTKYAQPPPRKPQEQKRKEEERKGKKGGREKRKGRR”, which “soluble on expression in E. coli” value is on record?
A: soluble

Q: For “MKWLLLITLSLYSFIVQSAPCGLTNVGEQRGTYILKPLSMKGNLTAEKIENTGNIIECADLQETTNAIKVHFLTQNALRFKVGSRHYIINFPFESDGKKNSASREVIL”, which “soluble on expression in E. coli” value is on record?
A: soluble

Q: For “MKYIVLLGDGMSDEAVKDLDGKTPLQAAKTPHMDVMARRGRIGLAHTVPKGLPPGSDVANLSVFGYDPRTCYTGRSPLEAASMGVQLGPDDVAFRVNLVNLLPTKGTLVMNDYSAGHISTEEGRELIEAIQQQIGDDEFQFYPGVGYRHLMVWRNGKSGMSATPPHDISGKSILDYLPKGEGADKLIYLMNSSQMILNNHPQYRRRLEADKIPANSIWLWGHGKAPRMEPFKEKFGLAGAVISAVDLINGIGIGAGLDVIRVEGATGYLDTNYEGKVQAALEALETHDYVYLHVEAPDEASHSGNLSHKLQAIEDFDARVVGPIMEGIRRFGSFRILCTPDHPTPLRLKTHTGAPVPFIIYDGGESEDDSIAGYDEDSARTSGLVLEEGHRLMELLLERLEHHHHHH”, which “soluble on expression in E. coli” value is on record?
A: soluble

Q: Which “soluble on expression in E. coli” value does the source give for “MKYIVNKSHNPAFNIALEAYAFRELVEEDELFILWINEPAIIIGKHQNTIQEINKEYIDEHGIHVVRRLSGGGAVYHDLNNLNYTIISNKTAEGAFDFKTFSQPVIATLADLGVTANFTGRNDIEIDGKKICGNAQAYYKGRMMHHGCLLFDVDMTVLGDALKVSKDKIESKGVKSVRARVTNILNELPEKITVEEFSDKILAKMKETYPDMTEYVLSEDELAKIEQSAKEQFGSWDWTYGKAPEYTIERNVRYPAGKISTFANVENSIIKNLKIYGDFFGIKDVQDIENLLIGCKYEYRDVFERLKTIDTTQYFSRMTVEEVAKAIVS” here?
A: not soluble

Q: With “MKYKIFASTTPQTEPVLQKLKQVLKGCEAVEKGFDYLFVLGGDGFFVSTVANYNCHNCRVVGINTGHLGFYTSFNEKDLDDNFLQKLQQCHFQRISLLEVSVNGQQHLVLNELAVYTNTAYPINIFIDGEAWEFYRGSGLLIGPRTGSTALAKSAKGAVIFPGIDVLQIIEMNPLLHPNQVTIQSPIILPKETQVEFVVKKAFNPQQFPTFYCDGRKLELPNADTTLALKLVQSTPMFNISLKTQDFINKLKSTFIKQS” as the sequence, how does the “soluble on expression in E. coli” value read?
A: soluble

Q: For “MKYKSGIFAAIHETMQGLHDIGAIDKKTMRGFDKSCLTEIKPLSGGDIKAIREKEALSQAAFAIYLNVGKNHVSAWERGVKKPSGAALKLLTIVKNKGIEAIA”, which “soluble on expression in E. coli” value is on record?
A: not soluble

Q: With “MKYNNHDKIRDFIIIEAYMFRFKKKVKPEVDMTIKEFILLTYLFHQQENTLPFKKIVSDLCYKQSDLVQHIKVLVKHSYISKVRSKIDERNTYISISEEQREKIAERVTLFDQIIKQFNLADQSESQMIPKDSKEFLNLMMYTMYFKNIIKKHLTLSFVEFTILAIITSQNKNIVLLKDLIETIHHKYPQTVRALNNLKKQGYLIKERSTEDERKILIHMDDAQQDHAEQLLAQVNQLLADKDHLHLVFE” as the sequence, how does the “soluble on expression in E. coli” value read?
A: soluble

Q: Which “soluble on expression in E. coli” value does the source give for “MLADKVKLSAKEILEKEFKTGVRGYKQEDVDKFLDMIIKDYETFHQEIEELQQENLQLKKQLEEASKKQPVQSNTTNFDILKRLSNLEKHVFGSKLYD” here?
A: not soluble

Q: With “MLAFIRFLFAGLLLVISHAFAATVQDEHGTFTLEKTPQRIVVLELSFADALAAVDVIPIGIADDNDAKRILPEVRAHLKPWQSVGTRAQPSLEAIAALKPDLIIADSSRHAGVYIALQQIAPVLLLKSRNETYAENLQSAAIIGEMVGKKREMQARLEQHKERMAQWASQLPKGTRVAFGTSREQQFNLHTQETWTGSVLASLGLNVPAAMAGASMPSIGLEQLLAVNPAWLLVAHYREESIVKRWQQDPLWQMLTAAQKQQVASVDSNTWARMRGIFAAERIAADTVKIFHHQPLTVVK” as the sequence, how does the “soluble on expression in E. coli” value read?
A: soluble

Q: With “MLAHLEELKKNIEGDLYFDLTMRTLYATDASVYRELPLAVARPKHKQDVQKIIAFANKYKIGIIPRTAGTSLAGQVVGKGIIVDVSKYFTE” as the sequence, how does the “soluble on expression in E. coli” value read?
A: not soluble

Q: For “MLAKDSSLTRTGKGEIVDKDSSFTWYVGTIDEANAFIGLARVFSKDEKVRETLLEIQKMLFLVGAEPSLQKLSEKDLEWMLERVEEFERSVKKPHCFIILEKDESTAFLSVARAVVRRAERQAVRLYREGKARLLVVEWLNKLSYLLYLMILKEGGGDFEEI”, which “soluble on expression in E. coli” value is on record?
A: not soluble

Q: Which “soluble on expression in E. coli” value does the source give for “MLAPKAFLDALSGHASRLFNGETPVPRSEFETQFKALLQSGFSKLDLVSREEFDSQMAVLARTRARLEALEAKMAELEGKVGGAEKAGSE” here?
A: not soluble

Q: Which “soluble on expression in E. coli” value does the source give for “MLAQCFQPNSSGIYPQEKLPLILETGVSPDYALIDSGNGKKLERYGAYRIIRPEGQALWKPALSEKHWANVDAIFTGNRDEEGVGRWYFPKKPLDETWPLSWNGLSFLGRFTSFRHVGVFPEQDAHWRFMEKQIVNATRPIKLLNLFGYTGIASLISARAGANVTHVDASKKAIAWAKANQEKAGLSDRSIRWICDDAVKFVERELRRQKTYDMILLDPPAYGRGPHGEIWQLFDHLPAMITNCRKLLSDEPLAVVLTAYSIRASFYALHTLMRDEFINLGGTVESGELILREKTTGRALSTSLFSRWIA” here?
A: not soluble

Q: For “MLARCLAFSYPASTFLIFFLRRRLSHHLWHPTYPRVLNSVRPAFRLAPFVSQKDTDMTVEQPIQVDTLVVGAGQAGVAMSEHLSKLGVPHLVLERSRVAEAWRTGRWDSLVANGPAWHDRFPGMEFDVAADAFPAKDQVADYFEAYARKFNAPIRTGVEVRKVLRNVGRPGFTVETSEGLIQAQRVVAATGPFQRPVIPPIATANDRLTQIHSAEYRNPQQLPEGAVLVVGAGSSGVQIADELQRAGRRVYLSVGAHDRPPRSYRNRDFCWWLGVLGEWDAEIAKPGREHVTIAVSGARGGQTIDFRALAHQGITLVGLTKAFAGEHVTFQADLLDNLARGDENYLALLDAADAYIARNGLDLPLEPEARRRLPDPDCVKQPILELDLQQAGITSIIWATGYAVDFSWLQVDTFSEQGKPLHQRGVSREPGVYFLGLPWLSRRGSSFIWGVWHDAKHVADHIATQRKYQAYSDARPPAATAEAPALNLSPVGAHLEHHHHHH”, which “soluble on expression in E. coli” value is on record?
A: not soluble

Q: For “MLCLGIEGTAEKTGVGIVDEAGNVLSLRGKPLIPEKGGIHPREAAEHHAKWIPRLIAEACRDAGVELGEIGLISFSRGPGLGPALRTVATAARTLALSLDVPIVGVNHCIGHIEIGRLTTGASDPVSLYVSGGNTQVIAFNEGRYRVFGETLDIAVGNMLDQFARESGLGHPGGPVIEQLALKASEYIELPYSVKGMDISFSGLLTAALRKMEAGASLEDLAYSIQETAFSMLVEVTERALAYTEKNQVLLCGGVAVNRRLRDMLREMCQEHHVEFHMPPPEYCGDNGAMIAWLGQLVYKYRGPDALEDTTVVQRYRTDEVDVPWMRESEAGIELPPDILAKGAEANIYRGQWIGRPCIIKERISKGYRIPEIDQKLRSSRTRREARLINQAKGAGVHTPVLFDVDPDGGVMVMEEVRGTPFRDAVEDTELCSRIGEAIGRLHHAGIIHGDLTGSNIIIRGGDVVFIDFGLGRFSDEIEDMGVDLLVLKKSLESTHYALAGECFSRVLEGYGKIIDADIQSKIREIESRGRYTD”, which “soluble on expression in E. coli” value is on record?
A: soluble
